Earlier results in paper PMC3726369.
Like-named read-outs stand apart in the source and are kept apart here.

What was measured:
[1] = molecular target: LH receptor (Homo sapiens) (UniProt P22888)
[2] = molecular target: LH receptor (Rattus norvegicus) (UniProt P16235)
[3] = molecular target: LH receptor (Homo sapiens) (UniProt P22888); remark: listed apart in the source

UniProt P22888, sequence (P22888 27-699): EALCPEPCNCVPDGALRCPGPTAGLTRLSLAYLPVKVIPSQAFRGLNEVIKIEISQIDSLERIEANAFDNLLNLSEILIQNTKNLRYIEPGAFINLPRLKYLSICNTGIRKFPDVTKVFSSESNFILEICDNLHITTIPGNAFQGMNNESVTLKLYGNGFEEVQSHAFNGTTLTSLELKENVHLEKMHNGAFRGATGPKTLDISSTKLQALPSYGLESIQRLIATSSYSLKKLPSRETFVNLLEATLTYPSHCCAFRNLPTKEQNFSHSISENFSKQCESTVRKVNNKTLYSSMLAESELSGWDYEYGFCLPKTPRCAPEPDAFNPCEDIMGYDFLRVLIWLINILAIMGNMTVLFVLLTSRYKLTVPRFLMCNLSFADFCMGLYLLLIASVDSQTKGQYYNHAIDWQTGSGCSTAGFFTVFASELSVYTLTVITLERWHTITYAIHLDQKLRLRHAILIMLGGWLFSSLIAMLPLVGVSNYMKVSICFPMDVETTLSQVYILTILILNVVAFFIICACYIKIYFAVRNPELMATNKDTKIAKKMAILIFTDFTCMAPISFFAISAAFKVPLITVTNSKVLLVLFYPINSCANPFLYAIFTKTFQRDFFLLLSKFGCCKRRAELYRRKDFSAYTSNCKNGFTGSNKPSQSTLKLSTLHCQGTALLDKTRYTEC
UniProt P16235, sequence (P16235 27-700): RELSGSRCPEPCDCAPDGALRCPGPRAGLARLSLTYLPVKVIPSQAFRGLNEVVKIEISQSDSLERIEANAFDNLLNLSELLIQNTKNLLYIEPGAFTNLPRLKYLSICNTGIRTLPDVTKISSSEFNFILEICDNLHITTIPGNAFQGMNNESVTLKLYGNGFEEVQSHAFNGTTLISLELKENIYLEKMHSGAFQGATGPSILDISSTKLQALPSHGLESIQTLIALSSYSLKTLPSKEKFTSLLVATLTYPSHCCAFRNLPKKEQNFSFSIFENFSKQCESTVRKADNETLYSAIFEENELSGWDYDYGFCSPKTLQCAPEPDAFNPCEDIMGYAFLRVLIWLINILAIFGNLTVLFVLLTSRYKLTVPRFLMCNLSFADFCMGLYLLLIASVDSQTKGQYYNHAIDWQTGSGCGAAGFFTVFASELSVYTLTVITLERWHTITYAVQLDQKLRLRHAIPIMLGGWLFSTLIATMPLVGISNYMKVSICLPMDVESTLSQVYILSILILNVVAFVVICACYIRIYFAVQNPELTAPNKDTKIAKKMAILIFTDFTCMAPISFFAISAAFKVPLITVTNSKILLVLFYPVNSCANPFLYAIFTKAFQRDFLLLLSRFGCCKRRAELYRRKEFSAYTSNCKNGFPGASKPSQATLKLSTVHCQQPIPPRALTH

| Kd [1] | Kd [2] | Kd [3] | Substance |
| --- | --- | --- | --- |
| 9 nM | 0.09 nM |  | LH (from UniProt P01215) |
|  |  | 4 nM | hCG (from UniProt P01215) |
